Assay results as given in the supplement of paper PMC7877785.
± gives the uncertainty stated by the source.

Experiment: self-splicing fitness, log relative to wild type (ln ratio); higher = more splicing; Tetrahymena group I intron in knt gene, E. coli kanamycin selection, DiMSum; sequences stand for … in CUCUCU…GGAGGGAAAAGUUAUCAGGCAUGCACCUGGUAGCUAGUCUUUAAACCAAUAGAUUGCAUCGGUUUAAAAGGCAAGACCGUCAAAUUGCGGGAAAGGGGUCAACAGCCGUUCAGUACCAAGUCUCAGGGGAAACUUUGAGAUGGCCUUGCAAAGGGUAUGGUAAUAAGCUGACGGACAUGGUCCUAACCACGCAGCCAAGUCCUAAGUCAACAGAUCUUCUGUUGAUAUGGAUGCAGUUCACAGACUAAAUGUCGGUCGGGGAAGAUGUAUUCUUCUCAUAAGAUAUAGUCGGACCUCUCCUUAAUGGGAGCUAGCGGAUGAAGUGAUGCAACACUGGAGCCGCUGGGAACUAAUUUGUAUGCGAAAGUAUAUUGAUUAGUUUUGGAGUACUCGUGGUCG
How it was run: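 The eight P1ex-region nucleotides of an intron in the knt kanamycin-resistance gene on pET-22b(+) were all randomised and the library put into E. coli BL21(DE3). Six replicate transformations were grown overnight at 37°C or 30°C on LB agar with or without 25 μg/mL kanamycin, together with 100 μg/mL carbenicillin, 50 μM IPTG and 0.2% rhamnose. Colonies were pooled and amplicon-sequenced on an Illumina HiSeq 2500. Fitness from DiMSum is the error-weighted combination of wild-type-normalised replicate fold changes, kanamycin over none.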

Sequence	self-splicing fitness (ln) (30 °C)	self-splicing fitness (ln) (37 °C)
UCAAAGCAAUAUUACGGAAU	-3.53 ± 0.17	-2.94 ± 0.23
UCAAAGCAAUAUUACGGCGG	-0.543 ± 0.063	-0.0651 ± 0.088
UCAAAGCAAUAUUACGGUCU	-2.68 ± 0.16	-1.58 ± 0.14
UCAAAGCAAUAUUACGUAGG	-1.07 ± 0.072	-0.463 ± 0.096
UCAAAGCAAUAUUACGUCUG	-1.05 ± 0.076	-0.306 ± 0.087
UCAAAGCAAUAUUACGUGUU	-3.06 ± 0.1	-2.8 ± 0.14
UCAAAGCAAUAUUACGUUAC	–	-2.01 ± 0.12
UCAAAGCAAUAUUACGUUUC	-4.09 ± 0.26	-3.15 ± 0.2
UCACAGCAAUAUUACGAAGC	-3.07 ± 0.21	–
UCACAGCAAUAUUACGAGCU	-3.32 ± 0.18	-2.37 ± 0.26
UCACAGCAAUAUUACGAGGC	-2.83 ± 0.14	-2.62 ± 0.16
UCACAGCAAUAUUACGCCCA	-1.47 ± 0.19	0.000225 ± 0.15
UCACAGCAAUAUUACGCCCG	-0.978 ± 0.12	-0.555 ± 0.14
UCACAGCAAUAUUACGCCGC	-3.57 ± 0.22	-2.69 ± 0.19
UCACAGCAAUAUUACGCCUC	-2.06 ± 0.35	–
UCACAGCAAUAUUACGCGAA	-1.74 ± 0.086	-0.538 ± 0.091
UCACAGCAAUAUUACGCGGU	-4.02 ± 0.13	-2.63 ± 0.13
UCACAGCAAUAUUACGCUGC	-2.78 ± 0.22	-2.09 ± 0.23
UCACAGCAAUAUUACGGAGU	-4.75 ± 0.33	-3.4 ± 0.23
UCACAGCAAUAUUACGGCAU	-4.11 ± 0.22	-2.26 ± 0.14
UCACAGCAAUAUUACGGGCG	-0.948 ± 0.094	-1.07 ± 0.093
UCACAGCAAUAUUACGGUAC	-3.57 ± 0.24	-2.6 ± 0.22
UCACAGCAAUAUUACGGUCC	-2.85 ± 0.21	-2.2 ± 0.2

Sequence	self-splicing fitness (ln) (30 °C)	self-splicing fitness (ln) (37 °C)
UCACAGCAAUAUUACGUCAC	-3.17 ± 0.18	-1.64 ± 0.13
UCACAGCAAUAUUACGUGCA	-0.403 ± 0.067	0.0083 ± 0.085
UCACAGCAAUAUUACGUUCG	-1.07 ± 0.061	-0.209 ± 0.09
UCAGAGCAAUAUUACGAAGC	-2.55 ± 0.44	–
UCAGAGCAAUAUUACGACAG	-2.53 ± 0.19	-2.92 ± 0.36
UCAGAGCAAUAUUACGAGGA	-2.47 ± 0.15	-1.83 ± 0.16
UCAGAGCAAUAUUACGAUCU	-3.62 ± 0.21	-2.88 ± 0.28
UCAGAGCAAUAUUACGCAAG	-1.74 ± 0.42	-1.48 ± 0.29
UCAGAGCAAUAUUACGCCCG	-2 ± 0.47	–
UCAGAGCAAUAUUACGCGCC	-2.37 ± 0.46	–
UCAGAGCAAUAUUACGCGCU	–	-1.62 ± 0.29
UCAGAGCAAUAUUACGCUGU	-2.98 ± 0.26	–
UCAGAGCAAUAUUACGGAAG	-3.05 ± 0.26	-3.41 ± 0.37
UCAGAGCAAUAUUACGGAUG	-3.87 ± 0.38	-2.06 ± 0.35
UCAGAGCAAUAUUACGGCGA	-0.324 ± 0.072	-0.417 ± 0.076
UCAGAGCAAUAUUACGGGCA	-3.11 ± 0.29	-1.77 ± 0.17
UCAGAGCAAUAUUACGGUGU	-4.01 ± 0.3	-2.25 ± 0.18
UCAGAGCAAUAUUACGUAUA	-3.46 ± 0.27	-2.44 ± 0.23
UCAGAGCAAUAUUACGUCUA	-3.04 ± 0.29	-2.35 ± 0.3
UCAGAGCAAUAUUACGUGUA	-2.57 ± 0.23	-2.18 ± 0.19
UCAGAGCAAUAUUACGUUAA	-3.58 ± 0.35	-2.61 ± 0.34
UCAGAGCAAUAUUACGUUGU	-3.38 ± 0.2	-3.51 ± 0.35
